Substitutions are numbered along the chain they refer to. Names may count otherwise. Bridges are numbered along the chain shown (N, C = ends). Where no end group is shown, it is not given here. [ ]: non-standard residue; d: D form. The star is where a group is joined. D‑NA = N-terminal D-nipecotic acid moiety terminating in acrylamide (cysteine-reactive warhead); Biotin = O=C1N[C@H]2[C@H](CS[C@H]2CCCCC(=O)*)N1; R8 = C=CCCCCCC[C@@](C)(N)C(=O)O; S5 = C=CCCC[C@](C)(N)C(=O)O
T1: His-BFL-1ΔC C4S/C19S (human, UniProt Q16548 1-151)
T1 construct: also called BFL-1 C4S/C19S; not shown: N-terminal hexahistidine tag (pET17b)
T1 chain: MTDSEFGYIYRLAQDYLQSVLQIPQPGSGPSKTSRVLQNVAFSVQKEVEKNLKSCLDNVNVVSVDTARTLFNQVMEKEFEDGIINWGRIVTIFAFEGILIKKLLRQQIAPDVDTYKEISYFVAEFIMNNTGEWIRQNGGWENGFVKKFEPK

T2: full length HA-BFL1 (human, UniProt Q16548 1-175)
T2 construct: also called HA-tagged full-length BFL-1; expressed full-length BFL-1; not shown: HA tag
T2 sequence: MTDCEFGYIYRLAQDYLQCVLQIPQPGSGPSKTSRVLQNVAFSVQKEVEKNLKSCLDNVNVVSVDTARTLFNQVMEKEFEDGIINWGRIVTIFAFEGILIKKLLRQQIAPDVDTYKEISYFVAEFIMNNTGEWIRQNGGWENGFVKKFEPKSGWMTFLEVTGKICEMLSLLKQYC

T3: His-BFL-1ΔC (human, UniProt Q16548 1-151)
T3 construct: also called WT His-BFL-1ΔC; wild-type BFL-1 construct; not shown: N-terminal hexahistidine tag (pET17b)
T3 sequence: T1 chain with S4C, S19C

T4: recombinant full-length BFL-1 (human, UniProt Q16548 1-175)
T4 construct: not shown: N-terminal hexahistidine tag
T4 sequence: T2 sequence

B1: D-NA-NOXA-15 R31E (peptide)
peptide: {D‑NA}-AT[R8]LREFGD[S5]LNFRQ
modifications: staple 3-10
notes: also called D-NA-NOXA SAHB-15 R31E; cysteine-reactive NOXA-15 R31E SAHB
B2: Ac-NOXA-15 R31E (peptide)
peptide: Ac-AT[R8]LREFGD[S5]LNFRQ
modifications: staple 3-10
notes: also called acetylated NOXA-15 R31E SAHB; acetylated counterpart of D-NA-NOXA-15 R31E
B3: D-NA-NOXA-15 F32A (peptide)
peptide: {D‑NA}-AT[R8]LRRAGD[S5]LNFRQ
modifications: staple 3-10
notes: also called D-NA-NOXA SAHB-15 F32A; cysteine-reactive NOXA-15 F32A SAHB
B4: biotinylated Ac-NOXA-15 R31E SAHB (peptide)
peptide: Ac-AT[R8]LREFGD[S5]LNFRQK(Biotin)
modifications: staple 3-10
notes: also called acetylated counterpart of D-NA-NOXA-15 R31E

Assays:
MCL-1ΔNΔC = target: T5, MCL-1ΔNΔC (human, UniProt Q07820 172-329); assay: competitive fluorescence polarization against FITC-BID BH3
T5 construct: As printed for the fluorescence polarization assay
T5 sequence (Q07820 172-329, stated change not applied): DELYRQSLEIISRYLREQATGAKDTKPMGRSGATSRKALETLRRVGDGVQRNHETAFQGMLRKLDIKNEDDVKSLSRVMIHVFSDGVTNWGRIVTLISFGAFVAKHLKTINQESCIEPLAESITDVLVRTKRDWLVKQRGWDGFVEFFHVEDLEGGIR
Experimental: (§1) The warhead-bearing D-NA-NOXA-15 R31E SAHB was only able to compete with FITC-BID BH3 for binding to BFL-1ΔC C4S/C19S (FIG. 20), and this activity was dependent on the presence of Cys55 in the BH3-binding pocket, as this effect was not observed with BFL-1ΔC C4S/C19S/C55S (FIG. 21).
(§2) Fluorescence polarization (FP) assays were performed as previously described (Pitter et al., 2008 (supra)). Briefly, direct binding curves were first generated by FITC-BID BH3 (25 nM) with serial dilutions of anti-apoptotic protein, and FP was measured at 5 min on a SpectraMax M5 microplate reader (Molecular Devices). For competition assays, a serial dilution of acetylated or warhead-bearing NOXA SAHB was added to the indicated recombinant protein at ~EC75 concentration, as determined by the direct binding assay. FITC-BID BH3 (25 nM) was then added and fluorescence polarization was measured at equilibrium. IC50 values were calculated by nonlinear regression analysis of competitive binding curves using PRISM software (GraphPad).

His-BFL-1ΔC C4S/C19S = target: T1, His-BFL-1ΔC C4S/C19S; assay: as above
Experimental: as §1, §2

full length HA-BFL1 = target: T2, full length HA-BFL1; assay: 293T cells treated with 20 µM NOXA SAHB for 12 hours; anti-HA western of lysates
Text: Of note, native BFL-1 runs at a higher molecular weight than recombinant or expressed BFL-1.

His-BFL-1ΔC [1] = target: T3, His-BFL-1ΔC; assay: in vitro covalent conjugation; reducing and denaturing gel electrophoresis
[2] = target: T4, recombinant full-length BFL-1; assay: as above
His-BFL-1ΔC [3] = target: T3, His-BFL-1ΔC; assay: streptavidin pull-down of biotinylated SAHB from an equimolar mixture of recombinant GST-MCL-1ΔNΔC, BCL-XLΔC and His-BFL-1ΔC; silver stain
Experimental: The biotinylated D-NA-NOXA-15 F32A SAHB or corresponding acetylated construct was incubated in an equimolar mixture with recombinant BFL-1, BCL-XL, and MCL-1, and then subjected to streptavidin pull-down. […] Additionally, the preferential interactions of these peptides were assessed with endogenous protein in lysates from the A375P melanoma cell line.
WT His-BFL-1ΔC, BCL-XLΔC (tagless), and GST-MCL-1ΔNΔC (1 μM each) were combined and incubated with 3 mM DTT in PBS for thirty minutes at room temperature. Mixtures were treated with vehicle or the indicated C-terminally biotinylated NOXA SAHB (1 μM) for four hours and were then added to 30 μL PBS-washed high-capacity streptavidin (SA) agarose beads (Thermo Fisher Pierce) and incubated with rotation at room temperature for two hours. The beads were then washed three times with NP-40 lysis buffer (1% NP-40, 50 mM Tris pH 8, 100 mM NaCl, 2.5 mM MgCl2) and three times with PBS. To elute bound protein, beads were boiled for ten minutes with 10% SDS containing 10 mg/mL biotin. After elution, samples were boiled with 3×LDS and 2M DTT for twenty minutes. Gel electrophoresis using a 12% Bis-Tris gel was conducted on inputs (2%) and eluates ([…]) and gels were developed using the Pierce silver staining kit (Thermo Fisher).

Binder	binding result (MCL-1ΔNΔC)	binding result (His-BFL-1ΔC C4S/C19S)	binding result (full length HA-BFL1)	binding result (His-BFL-1ΔC [1])	binding result [2]	binding result (His-BFL-1ΔC [3])
B1	binds	binds	binds	binds	binds	
B2	binds					
B3			binds	binds	binds	
B4						no binding (tested: 1 µM)

Reference: patent publication US20260226104A1 (Dana-Farber, published 2026)
